Source: PMC8939794

Biological target: His6-Tagged vimentin (Novus Biologicals) (UniProt P08670)
Assay: MST; His6-vimentin labelled with RED-tris-NTA 2nd Generation dye, kept at 20 nM; V-domain protein titrated from 40 uM to 0.117 uM; premium capillaries, Monolith NT.115 Pico, 20% excitation power; 'estimated' Kd

Sequence of UniProt P08670 (P08670 whole entry): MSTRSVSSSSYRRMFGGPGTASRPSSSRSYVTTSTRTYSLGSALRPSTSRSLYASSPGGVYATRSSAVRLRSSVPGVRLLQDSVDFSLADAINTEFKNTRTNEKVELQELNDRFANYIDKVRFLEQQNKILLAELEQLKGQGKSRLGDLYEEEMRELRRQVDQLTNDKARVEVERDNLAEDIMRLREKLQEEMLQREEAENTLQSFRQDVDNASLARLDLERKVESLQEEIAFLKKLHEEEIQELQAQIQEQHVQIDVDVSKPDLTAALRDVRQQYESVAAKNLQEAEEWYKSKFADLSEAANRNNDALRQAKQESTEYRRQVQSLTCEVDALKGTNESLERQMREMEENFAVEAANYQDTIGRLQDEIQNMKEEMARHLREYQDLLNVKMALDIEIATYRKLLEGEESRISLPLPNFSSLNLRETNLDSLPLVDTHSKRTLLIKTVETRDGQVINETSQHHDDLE

Substance: BspC Gating Loop Mutant (GLM) V-domain, A250P/A259P (domain or fragment)
- Kd: 41.9 µM

Substance: BspC V-domain (variable domain of Group B streptococcal surface protein C, strain COH1) (domain or fragment)
- Kd: 7.14 µM
